Test results reported in patent US20250235548A1, “ANTIBODY-DRUG CONJUGATES TARGETING NAPI2B AND METHODS OF USE” (Zymeworks BC Inc., priority 2022, published 2025).
Where a chain is given by its changes, count along the chain named. Blank lines part the entries; values can stand above or below the molecule they belong to.

Legend:
[1] = Thermal stability by differential scanning calorimetry (Example 8); assay type: physicochemical; conditions: DSC, 0.4 mg/mL in PBS, 20° C. to 100° C. at 60° C./hr
Method: The thermal stability of the humanized antibody variants was assessed by differential scanning calorimetry (DSC) as described below.
400 μL of purified samples primarily at concentrations of 0.4 mg/mL in PBS were used for DSC analysis with a VP-Capillary DSC (Malvern Panalytical Inc., Westborough, MA). At the start of each DSC run, 5 buffer blank injections were performed to stabilize the baseline, and a buffer injection was placed before each sample injection for referencing. Each sample was scanned from 20° C. to 100° C. at a 60° C./hr rate, with low feedback, 8 sec filter, 3 min pre-scan thermostat, and 70 psi nitrogen pressure. The resulting thermograms were referenced and analyzed using Origin 7 software (OriginLab Corporation, Northampton, MA) to determine melting temperature (Tm) as an indicator of thermal stability.

[2] = biological target: T1, NaPi2b expressed on IGROV-1 cells (Homo sapiens, UniProt O95436); assay: Cellular binding of bivalent antibodies by flow cytometry (Example 16); conditions: NB = no cellular binding; for Bmax, IGROV-1: AF647 GeoMean, 24 hours at 4° C.
T1 construct: endogenous NaPi2b-expressing cancer cell lines IGROV-1 (ovarian carcinoma); endogenous in cells; host or cells: IGROV-1
T1 sequence (O95436 1-690): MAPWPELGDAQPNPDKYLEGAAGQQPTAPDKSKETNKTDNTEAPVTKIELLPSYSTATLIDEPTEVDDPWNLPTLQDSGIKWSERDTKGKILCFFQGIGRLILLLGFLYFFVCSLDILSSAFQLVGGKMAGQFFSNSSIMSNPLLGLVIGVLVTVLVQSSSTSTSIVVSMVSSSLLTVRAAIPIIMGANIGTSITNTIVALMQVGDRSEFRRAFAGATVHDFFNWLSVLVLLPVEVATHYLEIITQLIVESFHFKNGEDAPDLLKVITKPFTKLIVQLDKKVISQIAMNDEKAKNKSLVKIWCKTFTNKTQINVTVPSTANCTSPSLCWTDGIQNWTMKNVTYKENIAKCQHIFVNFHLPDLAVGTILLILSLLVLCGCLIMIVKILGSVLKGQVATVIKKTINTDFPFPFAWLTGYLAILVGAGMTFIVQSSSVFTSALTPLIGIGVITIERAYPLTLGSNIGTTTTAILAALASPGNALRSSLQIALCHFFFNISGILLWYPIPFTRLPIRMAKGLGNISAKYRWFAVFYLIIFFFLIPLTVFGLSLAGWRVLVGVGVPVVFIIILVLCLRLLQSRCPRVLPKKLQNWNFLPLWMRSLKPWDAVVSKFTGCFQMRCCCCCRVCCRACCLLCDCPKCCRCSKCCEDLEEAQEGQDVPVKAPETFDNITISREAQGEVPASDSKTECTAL
Method: IGROV-1 cells express endogenous NaPi2b at a high level.
Briefly, cells were seeded at 50,000 cells/well in conical-bottom 96-well plates and treated with test antibody for 24 hours at 4° C. to prevent internalization. […] Following incubation and washing, fluorescence was detected by flow cytometry on a BD LSRFortessa™ Cell Analyzer (BD Biosciences, Franklin Lake, NJ) with 1,000 minimum events collected per well.

- Bmax, IGROV-1 [2]: 44,480
- Curve Hill Slope (h), IGROV-1 [2]: 1.2
B1: v29453: "Representative humanized antibody variants ... of the mouse antibody" that specifically binds hNaPi2b (antibody, V domains shown)
VH: QVQLVQSGAEVKKPGASVKMSCKASGFTFTSYNVHWVRQAPGQGLEWIAAISPGNGDLSYAQKFQGRATLTVDRSTSTAYMELSSLRSEDTAVYYCARGRTGMGAVDYWGQGTLVTVSS
VL: DVQMTQSPSSLSASVGDRVTITCRASQDVYSYLNWYQQKPGKAVKLLIYYTSRLQSGVPSRFSGSGSGTDYTLTISSLQPEDFATYYCQQYNIFPWTFGQGTKLEIK
modifications: v29449, v29453, v29457 VH (H4); v29453, v29454, v29455, v29456 VL (L2)
- Fab Tm (° C.) [1]: 78.9 °C

- Bmax, IGROV-1 [2]: 40,071
- Curve Hill Slope (h), IGROV-1 [2]: 1.2
B2: v29460: "Representative humanized antibody variants ... of the mouse antibody" that specifically binds hNaPi2b (antibody, V domains shown)
VH: B1 VH with M20V, I48M, A49G, A68V, L70M, V72R, R74T, A79V
VL: B1 VL with V2I, V44P, Y71F
modifications: v29452, v29456, v29460 VH (H1); v29457, v29458, v29459, v29460 VL (L1)
- Fab Tm (° C.) [1]: 80.3 °C

- Bmax, IGROV-1 [2]: 44,539
- Curve Hill Slope (h), IGROV-1 [2]: 1.0
B3: v29457: "Representative humanized antibody variants ... of the mouse antibody" that specifically binds hNaPi2b (antibody, V domains shown)
VH: B1 VH
VL: B1 VL with V2I, V44P, Y71F
modifications: v29449, v29453, v29457 VH (H4); v29457, v29458, v29459, v29460 VL (L1)
- Fab Tm (° C.) [1]: 80.5 °C

- Bmax, IGROV-1 [2]: 40,793
- Curve Hill Slope (h), IGROV-1 [2]: 1.1
B4: v29458: "Representative humanized antibody variants ... of the mouse antibody" that specifically binds hNaPi2b (antibody, V domains shown)
VH: B1 VH with R74T
VL: B1 VL with V2I, V44P, Y71F
modifications: v29450, v29454, v29458 VH (H3); v29457, v29458, v29459, v29460 VL (L1)
- Fab Tm (° C.) [1]: 81.6 °C

- Bmax, IGROV-1 [2]: 46,170
- Curve Hill Slope (h), IGROV-1 [2]: 1.1
B5: v29451: "Representative humanized antibody variants ... of the mouse antibody" that specifically binds hNaPi2b (antibody, V domains shown)
VH: B1 VH with M20V, A68V, L70M, R74T, A79V
VL: B1 VL with F83I
modifications: v29451, v29455, 29459 VH (H2); v29449, v29450, v29451, v29452 VL (L3)
- Fab Tm (° C.) [1]: 83.0 °C

- Bmax, IGROV-1 [2]: 42,278
- Curve Hill Slope (h), IGROV-1 [2]: 1.0
B6: v29454: "Representative humanized antibody variants ... of the mouse antibody" that specifically binds hNaPi2b (antibody, V domains shown)
VH: B1 VH with R74T
VL: B1 VL
modifications: v29450, v29454, v29458 VH (H3); v29453, v29454, v29455, v29456 VL (L2)
- Fab Tm (° C.) [1]: 79.7 °C

- Bmax, IGROV-1 [2]: 43,809
- Curve Hill Slope (h), IGROV-1 [2]: 1.2
B7: v29450: "Representative humanized antibody variants ... of the mouse antibody" that specifically binds hNaPi2b (antibody, V domains shown)
VH: B1 VH with R74T
VL: B1 VL with F83I
modifications: v29450, v29454, v29458 VH (H3); v29449, v29450, v29451, v29452 VL (L3)
- Fab Tm (° C.) [1]: 81.0 °C

- Bmax, IGROV-1 [2]: 44,460
- Curve Hill Slope (h), IGROV-1 [2]: 1.3
B8: v29449: "Representative humanized antibody variants ... of the mouse antibody" that specifically binds hNaPi2b (antibody, V domains shown)
VH: B1 VH
VL: B1 VL with F83I
modifications: v29449, v29453, v29457 VH (H4); v29449, v29450, v29451, v29452 VL (L3)
- Fab Tm (° C.) [1]: 80.0 °C

- Bmax, IGROV-1 [2]: 41,917
- Curve Hill Slope (h), IGROV-1 [2]: 1.1
B9: v29455: "Representative humanized antibody variants ... of the mouse antibody" that specifically binds hNaPi2b (antibody, V domains shown)
VH: B1 VH with M20V, A68V, L70M, R74T, A79V
VL: B1 VL
modifications: v29451, v29455, 29459 VH (H2); v29453, v29454, v29455, v29456 VL (L2)
- Fab Tm (° C.) [1]: 81.5 °C
